Experimental data published in patent US6395275 (Scripps Research, dated 2002).
Changes are numbered by the printed parent chain.

B1: Fab M556-16 (Fab, V domains shown)
VH: LEQSGAEVKKPGASVKVSCQASGYRFSNFTVHWVRQAPGQRFEWMGWINPYNGNKEFSAKFQDRVTFTADTSANTAYMELRSLRSADTAVYYCARVGEWGWDQVRYDNYYMDVWGKGTTVIVSS
VL: ELTQSPGTLSLSPGERATFSCRSSHSIRSRRVAWYQHKPGQAPRLVIHGVSNRASGISDRFSGSGSGTDFTLTITRVEPEDFALYYCQVYGASSYTFGQGTKLERKR
B2: Fab M556-10 (Fab, V domains shown)
VH: B1 VH with D102H, V104R
VL: B1 VL
B3: Fab M556-7 (Fab, V domains shown)
VH: B1 VH with D102E, Q103M, V104R, Y106F
VL: B1 VL
B4: Fab M556-2 (Fab, V domains shown)
VH: B1 VH with D102E, V104F, Y106F
VL: B1 VL
B5: Fab M556-3 (Fab, V domains shown)
VH: B1 VH with D102E, Q103M, V104F
VL: B1 VL
B6: Fab M556-15 (Fab, V domains shown)
VH: B1 VH with D102T, V104R, Y106F
VL: B1 VL
B7: Fab 3b9 (Fab, V domains shown)
VH: B1 VH with E98P, G100R, Q103D, V104S, R105P, Y106Q, T119I
VL: B1 VL
B8: Fab MT4 (Fab, V domains shown)
VH: B1 VH with T30V, V31I, E98P, W99Y, G100S, Q103D, V104S, R105P, Y106Q
VL: B1 VL
notes: also called Fab 4; 4H (heavy chain)
B9: composite Fab H101/L42-1 (Fab, V domains shown)
VH: B1 VH with N28H, M45H, D102H, V104R
VL: B1 VL with S26Q, I27L, R28D, S29G, R30S, V89Q, A92W, S93P, S94F
B10: composite Fab H33/L42-17 (Fab, V domains shown)
VH: B1 VH with N28H, V31L, M45H, D102E, Q103M, V104F
VL: B1 VL with S26Q, I27L, R28D, S29G, R30S, V89Q, A92W, S93P, S94F
B11: composite Fab H101/L42-16 (Fab, V domains shown)
VH: B1 VH with N28H, M45H, D102H, V104R
VL: B1 VL with S26Q, I27L, R28D, S29G, R30S, V89Q, A92W, S93P, S94F
B12: composite Fab H33/LH-11 (Fab, V domains shown)
VH: B1 VH with N28H, V31L, M45H, D102E, Q103M, V104F
VL: B1 VL with S26Q, I27L, R28D, S29G, R30S, V89T, A92R, S93G, S94H

Each binder was assayed against T1, recombinant gp120 of HIV-1 strain IIIb (HIV-1 strain IIIb, UniProt P04578 33-511) (assay: SPR BIAcore, gp120 on chip;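 on Ka: fab fragments flowed at 0.5 to 10 ug/ml over immobilized gp120, resonance units tracked during association and dissociation, equilibrium constants derived from the rate constants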).
T1 construct: domain: gp120; also called IIIb-derived gp120; gp 120 (IIIB strain)
Source text: (§1) As the mass of the gold chips increases due to the binding of the Fabs to the ligand, the refractive index of the chips increases indicating a coordinate increase in the increase of the mass. Measurements of the "on" rate are made in addition to the "off" rates, the latter of which occurs as the Fabs begin to dissociate from the ligand and the mass coordinately decreases, thereby allowing a measurement of the change of the refractive index. Briefly, the sensor chip was activated for immobilization with N-hydroxysuccinimide an N-ethyl-N'-(3-diethyl aminopropyl) carbodiimide. The proteins, MN-derived or IIIb-derived gp120, were coupled to the surface by injection of 50 ul of a 50 ug/ml sample. Excess activated esters were quenched with 15 ul ethanolamine, 1 M pH 8.5. Typically, 4000 resonance units were immobilized. Binding of Fab fragments to immobilized gp120 was studied by injection of Fab in a range of concentrations (0.5 to 10 ug/ml) at a flow rate of 5 ul/minute. The association was monitored as the increase in resonance units per unit time. Dissociation measurements were acquired following the end of the association phase but with a flow rate of 50 ul/minute. The binding surface was regenerated with HCl, 1M NaCl, pH 3 and remained active for 20–40 measurements. […] Equilibrium association and dissociation constants were deduced from the rate constants.
The soluble M556 series Fabs were then analyzed for binding affinity to gp120 (strain IIIB).

First: B1
Second: B2
The “Fold Increase of Mutant Kd Compared to MT4 Kd” value (“Fold Increase” below) of the first is lower: 45.3 fold for the first, 69.5 fold for the second.

First: B3
Second: B4
The “Fold Increase” value of the first is higher: 48.1 fold for the first, 14.3 fold for the second.

First: B5
Second: B6
The “Fold Increase” value of the first is higher: 63 fold for the first, 36.2 fold for the second.

Going from B1 to B2, the Kd falls from 0.139 nM to 0.0906 nM (1.5-fold).

Going from B3 to B4, the Kd rises from 0.131 nM to 0.439 nM (3.4-fold). The first binds more tightly here.

Compared with B5, B6 is 1.7-fold higher in Kd: 0.101 nM for the first, 0.174 nM for the second.

The binders below were run against gp120 glycoprotein of HIV-1 strain MN (HIV-1 strain MN, UniProt P05877 32-513, limits assumed) (assay: cell-based or functional assay).

First: B7
Second: B8
The “IC50 (M^-1), syncytium neutralization assay, HIV-1 MN on CEM-SS cells” value of the first is 38-fold higher: 6.4e+09 M⁻¹ for the first, 1.69e+08 M⁻¹ for the second.

Going from B7 to B8, the “Neutralization Titer (ng/ml), syncytium assay, HIV-1 MN” value rises from 7.8 ng/mL to 296 ng/mL (38-fold).

Molecular target: T1, recombinant gp120 of HIV-1 strain IIIb
Assay: SPR BIAcore, gp120 on chip
Remark: another data set of the same source
Source text: as §1
The soluble composite Fabs were then analyzed for binding affinity to gp120 strain IIIB.

Going from B9 to B10, the “Fold Increase” value falls from 48.5 fold to 34.4 fold.

Going from B11 to B12, the “Fold Increase” value rises from 36.6 fold to 85.4 fold.

B9 and B10 are within 1.5-fold of each other in Ka: 7.7e+09 M⁻¹ for the first, 5.46e+09 M⁻¹ for the second.

Compared with B11, B12 is 2.3-fold higher in Ka: 5.81e+09 M⁻¹ for the first, 1.36e+10 M⁻¹ for the second.

B9 and B10 are within 1.5-fold of each other in Kd: 0.13 nM for the first, 0.183 nM for the second.

Compared with B11, B12 is 2.3-fold lower in Kd: 0.172 nM for the first, 0.0738 nM for the second.

Molecular target: T1, recombinant gp120 of HIV-1 strain IIIb
Assay: SPR BIAcore, gp120 on chip
Remark: another data set of the same source

B9 and B10 are within 1.5-fold of each other in koff: 1.74e-05 s⁻¹ for the first, 1.78e-05 s⁻¹ for the second.

First: B11
Second: B12
The koff of the first is 2.2-fold higher: 1.19e-05 s⁻¹ for the first, 5.45e-06 s⁻¹ for the second.

B9 and B10 are within 1.5-fold of each other in kon: 134000 M⁻¹ s⁻¹ for the first, 98400 M⁻¹ s⁻¹ for the second.

B11 and B12 are within 1.5-fold of each other in kon: 69100 M⁻¹ s⁻¹ for the first, 73200 M⁻¹ s⁻¹ for the second.

What follows are binders tested against T1, recombinant gp120 of HIV-1 strain IIIb (assay: SPR BIAcore, gp120 on chip (summary table)).

B9 and B10 are within 1.5-fold of each other in Kd: 0.13 nM for the first, 0.183 nM for the second.

Going from B11 to B12, the Kd falls from 0.17 nM to 0.0738 nM (2.3-fold). The second binds more tightly here.

Going from B1 to B2, the Kd rises from 0.139 nM to 0.906 nM (6.5-fold).

Going from B3 to B4, the Kd rises from 0.13 nM to 0.439 nM (3.4-fold).

First: B5
Second: B6
The Kd of the first is 1.7-fold lower: 0.1 nM for the first, 0.174 nM for the second.
